Results reported in the supplement of paper PMC12042874.
± gives the uncertainty stated by the source.

Assay: amyloid nucleation score (Sup35N fusion, yeast selection) (log enrichment); library NNK1; higher = more nucleation; inactive = no reads after selection
Outline: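 Yeast lacking psi expressed peptides of 20 random codons fused to Sup35N, received 100 μM copper sulfate for 24 hours, and were then grown for 7 days at 30°C on medium lacking adenine and uracil. Illumina sequencing of input and output plasmid inserts provided the reads. Nucleation scores are DiMSum log enrichments of output over input, centred on the mode of non-aggregating sequences. Any sequence with under 100 input reads was excluded.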

In order of rising amyloid nucleation score:
1. IDSGRAKRLSHMIWISVRHG  -1.93 ± 2.7
2. IPKVIGWFTVVTTGVVVNIS  -1.59 ± 2.7
3. IRGTLT  -1.42 ± 2.1
4. IRVINYFVWSWTLTIIADFI  -1.25 ± 2.4
5. IINERSANLYDFVVIDRSWL  -1.04 ± 0.69
6. ILLICYGSCAPNNMVSASTD  -0.959 ± 0.84
7. IIFCMVFDSVSDDVLYITSK  -0.941 ± 0.99
8. IRCVERGVWSCTFHIQGNCF  -0.84 ± 0.91
9. IGVKVTY  -0.796 ± 0.53
10. INLMGSPS  -0.708 ± 0.28
11. INFCFKCWNKVWLDNFFLSS  -0.67 ± 0.22
12. IDWKLKLMFMCFESKSLVNW  -0.655 ± 0.32
13. IGESDNG  -0.63 ± 0.56
14. IFAQKGYTSRFSILM  -0.565 ± 0.58
15. INTKRVRSRHSTR  -0.502 ± 0.79
16. IFSSGYAKAFVHLVCSVAQL  -0.458 ± 0.45
17. IECMAMCHSVRSCCGSIYDC  -0.422 ± 0.38
18. IQSIIW  -0.418 ± 0.5
19. INRFEG  -0.385 ± 0.68
20. IFLPYI  -0.383 ± 1.4
21. IPTFSKIGKLFYVCGAEFSD  -0.355 ± 0.88
22. IFFFKEYCFMQVIRGFVCN  -0.265 ± 1.1
23. IRTPYIWLTCRGPYEVRRWD  -0.247 ± 0.69
24. IFILIRYWHCITSSPDVGFG  -0.246 ± 0.61
25. ILKRSCEVVL  -0.243 ± 0.47
26. IDMTEMKIRWV  -0.208 ± 0.27
27. IMVCN  -0.197 ± 0.42
28. IISAFISESTYDCGFASWVS  -0.187 ± 0.42
29. IILIDMVCPPCRPRFRSYSC  -0.153 ± 0.69
30. IHVSFKDYLTVSTIMMWTIV  -0.077 ± 0.66
31. ILPCFDANIIQDP  -0.064 ± 0.81
32. IHSQHKHVIMRA  -0.061 ± 0.57
33. IIISTGVRFTEDSCGFAWAE  -0.009 ± 0.66
34. IPVVVV  0.014 ± 0.24
35. IDSFCKCDISCVIFSWIVVV  0.024 ± 0.25
36. IISDDNSGMWWVMFLV  0.065 ± 0.61
37. IRHNTRRSSIRTET  0.086 ± 0.49
38. IHKMCRAD  0.12 ± 0.55
39. ILPAYAQ  0.134 ± 1.1
40. IILSAHVLSRTFLAFVSQKE  0.146 ± 0.77
41. IRGTFRVSYGNGKCNSVMNY  0.201 ± 0.42
42. IIICFRTWLTCSFCFDSAPC  0.227 ± 0.49
43. INVNRG  0.239 ± 0.56
44. IFHSAVQTNLSGGCRAGVWL  0.254 ± 0.83
45. IRSLKNPF  0.275 ± 1.2
46. IGHGTHG  0.282 ± 0.49
47. INRCGGVPARLLLCKLGYLG  0.298 ± 0.5
48. ILSFSVRLPVHDSSLCFGSG  0.316 ± 0.67
49. INTFARRAVVSSLSWSLACH  0.317 ± 0.64
50. IIEIRLNLGAVANLSTYGVM  0.327 ± 0.39
51. IILWAWCKTGGDGIPSGVVL  0.342 ± 0.23
52. IRRRRTNIWGWAIYRAISIY  0.345 ± 0.4
53. IKDNITGKSSYGM  0.418 ± 0.32
54. IGPLYRFCMLNMRFGAGSLN  0.428 ± 0.84
55. IGTGLLS  0.451 ± 0.62
56. IKIRAICVCMFDSQEGLGET  0.601 ± 0.43
57. INDYMLYGVLAYILGHGTVQ  0.622 ± 0.49
58. IFWTFRGITMPSC  0.702 ± 0.55
59. IKAWWMNHGRYHCLTLRVCL  0.713 ± 0.38
60. IKAELAKCLNTACVKFFCDV  0.715 ± 0.37
61. IFPPFMDFRNCPVMLNC  0.761 ± 0.2
62. INLLVPFQNESVLELNATEW  0.772 ± 0.51
63. IMCIHSFCFCLRPSHLIVGG  0.774 ± 0.41
64. IRSEDKITFPGLCKSRLELV  0.845 ± 0.67
65. IQGNFRDLGRDKHDTEVWHP  0.858 ± 0.45
66. IKWTLLDG  0.871 ± 0.47
67. ILMHSIAVFTRGIGRIRLAS  0.913 ± 0.68
68. IFVYCEFNKNRIPALASWVG  0.93 ± 0.43
69. IGIPVLGMNINYCFLR  0.931 ± 0.29
70. IIGLVWSVL  0.993 ± 0.58
71. IPNSRLLNI  0.996 ± 0.57
72. IFLIVMFPLFNDCLHCYKTC  1.3 ± 0.13
73. ILKALF  1.53 ± 0.8
74. ISALGF  1.98 ± 0.72
75. IGLMALLGLTRDR  2.17 ± 0.12
76. IPWPRTPSSSGMHAL  4.81 ± 0.074
77. IMEGR  5.73 ± 0.1
78. IKYLSYDVNPPLWFVYNFSF  6.29 ± 0.084
79. IRMFSTLLACNLVIGGCLAN  6.482 ± 0.053

In the case of IEVGIVGNLS, the amyloid nucleation score is reported as “inactive”.
In the case of IFTTSNQSEGRGVPAGNPNL, the amyloid nucleation score is reported as “inactive”.
In the case of IGGLSGEYWFHLLSSSVLFF, the amyloid nucleation score is reported as “inactive”.
With IHKDFSLMHILRIHLVGVFS the amyloid nucleation score was “inactive”.
With IHNSVDKTYLCSVLNPRGYS the amyloid nucleation score was “inactive”.
In the case of IIEWFSWWARMIFDDFPYYE, the amyloid nucleation score is reported as “inactive”.
With IISGIIIRYIDYNYRD the amyloid nucleation score was “inactive”.
With ILYGRIR the amyloid nucleation score was “inactive”.
